Measured values reported in patent US20030207446A1 (US Dept. of Health and Human Services, published 2003).

B1: BPV E2 protein (full-length 48 kD form) (other)
chain: METACERLHVAQETQMQLIEKSSDKLQDHILYWTAVRTENTLLYAARKKGVTVLGHCRVPHSVVCQERAKQAIEMQLSLQELSKTEFGDEPWSLLDTSWDRYMSEPKRCFKKGARVVEVEFDGNASNTNWYTVYSNLYMRTEDGWQLAKAGADGTGLYYCTMAGAGRIYYSRFGDEAARFSTTGHYSVRDQDRVYAGVSSTSSDFRDRPDGVWVASEGPEGDPAGKEAEPAQPVSSLLGSPACGPIRAGLGWVRDGPRSHPYNFPAGSGGSILRSSSTPVQGTVPVDLASRQEEEEQSPDSTEEEPVTLPRRTTNDGFHLLKAGGSCFALISGTANQVKCYRFRVKKNHRHRYENCTTTWFTVADNGAERQGQAQILITFGSPSQRQDFLKHVPLPPGMNISGFTASLDF
notes: mature; BPHE-1 cells express three forms of E2; SFV-E2 gives only the 48 kD form
B2: bovine papillomavirus type 1 (BPV1) L2 minor capsid protein (other)
chain: MSARKRVKRASAYDLYRTCKQAGTCPPDVIPKVEGDTIADKILKFGGLAIYLGGLGIGTWSTGRVAAGGSPRYTPLRTAGSTSSLASIGSRAVTAGTRPSIGAGIPLDTLETLGALRPGVYEDTVLPEAPAIVTPDAVPADSGLDALSIGTDSSTETLITLLEPEGPEDIAVLELQPLDRPTWQVSNAVHQSSAYHAPLQLQSSIAETSGLENIFVGGSGLGDTGGENIELTYFGSPRTSTPRSIASKSRGILNWFSKRYYTQVPTEDPEVFSSQTFANPLYEAEPAVLKGPSGRVGLSQVYKPDTLTTRSGTEVGPQLHVRYSLSTIHEDVEAIPYTVDENTQGLAFVPLHEEQAGFEEIELDDFSETHRLLPQNTSSTPVGSGVRRSLIPTQEFSATRPTGVVTYGSPDTYSASPVTDPDSTSPSLVIDDTTTTPIIIIDGHTVDLYSSNYTLHPSLLRKRKKRKHA
notes: mature; Expressed from recombinant Semliki Forest virus in BHK-21 or BPHE-1 cells; also called BPV L2

What was measured:
[1] = biological target: B2; experiment: coimmunoprecipitation; cosedimentation in sucrose gradients
[2] = biological target: T1, bovine papillomavirus type 1 (BPV1) L1 major capsid protein (bovine papillomavirus type 1 (BPV1), UniProt P03103 1-495); experiment: co-expression from recombinant SFV in BHK-21 cells; heading of the section
T1 construct: mature; Expressed from recombinant Semliki Forest virus in BHK-21 or BPHE-1 cells; self-assembles into VLPs; also called BPV L1

B1
binding result [1]: no binding

B2
binding result [2]: binds
